Experimental data: US20090042805

Assays:
Z-VDVAD-FMK = target: T1, Z-VDVAD-FMK
T1 chain: VDVAD

Ac-VDVAD-cho = target: T2, Ac-VDVAD-cho
T2 chain: VDVAD

B1: Human recombinant caspase-2 (protein)
chain: GPVCLQVKPCTPEFYQTHFQLAYRLQSRPRGLALVLSNVHFTGEKELEFRSGGDVDHSTLVTLFKLLGYDVHVLCDQTAQEMQEKLQNFAQLPAHRVTDSCIVALLSHGVEGAIYGVDGKLLQLQEVFQLFDNANCPSLQNKPKMFFIQACRGDETDRGVDQQDGKNHAGSPGCEESDAGKEKLPKMRLPTRSDMICGYACLKGTAAMRNTKRGSWYIEALAQVFSERACDMHVADMLVKVNALIKDREGYAPGTEFHRCKEMSEYCSTLCRHLYLFPGHPPT
in vitro VDVAD-AMC cleavage by recombinant caspase-2 (SEQ8): is blocked by SEQ8 | in vitro VDVAD-AMC cleavage by recombinant caspase-2 (Z-VDVAD-FMK): as efficiently as commercially available caspase-2 reversible (Ac-VDVAD-Cho) or irreversible (Z-VDVAD-FMK) inhibitors | in vitro VDVAD-AMC cleavage by recombinant caspase-2 (Ac-VDVAD-cho): as efficiently as commercially available caspase-2 reversible (Ac-VDVAD-Cho) or irreversible (Z-VDVAD-FMK) inhibitors
